In publication PMC11828465:

Target: Vps26A (UniProt O75436)
Assay: BRET titration curves in live cells
Conditions: sites S72

Substance: Rab7A (from UniProt P51149) S72A
- other: BRET50 (reference: wild type RlucII–Rab7A): weaker; reference 0.0026±0.000512

Substance: Rab7A (from UniProt P51149) NEK7KO HEK293 cells
- other: BRET50 (reference: wild-type HEK293 cells): weaker; reference 0.0022±0.0009

Substance: Rab7A (from UniProt P51149) NEK7KO HEK293 cells expressing HA–NEK7
- other: BRET50 (reference: NEK7KO HEK293 cells): stronger; reference 0.0096±0.0039
